Measurements from article PMC3237458 (2011).
Blank lines part the entries; values can stand above or below the binder they belong to. Square brackets hold non-standard residues; d marks the D form. Ends that are not written are not given here. * marks the point of attachment. Biotin = O=C1N[C@H]2[C@H](CS[C@H]2CCCCC(=O)*)N1; Ahx = NCCCCCC(=O)O

Assays:
[1] = molecular target: T1, EphB4 Fc (UniProt P54761 16-539); test: ELISA
T1 chain: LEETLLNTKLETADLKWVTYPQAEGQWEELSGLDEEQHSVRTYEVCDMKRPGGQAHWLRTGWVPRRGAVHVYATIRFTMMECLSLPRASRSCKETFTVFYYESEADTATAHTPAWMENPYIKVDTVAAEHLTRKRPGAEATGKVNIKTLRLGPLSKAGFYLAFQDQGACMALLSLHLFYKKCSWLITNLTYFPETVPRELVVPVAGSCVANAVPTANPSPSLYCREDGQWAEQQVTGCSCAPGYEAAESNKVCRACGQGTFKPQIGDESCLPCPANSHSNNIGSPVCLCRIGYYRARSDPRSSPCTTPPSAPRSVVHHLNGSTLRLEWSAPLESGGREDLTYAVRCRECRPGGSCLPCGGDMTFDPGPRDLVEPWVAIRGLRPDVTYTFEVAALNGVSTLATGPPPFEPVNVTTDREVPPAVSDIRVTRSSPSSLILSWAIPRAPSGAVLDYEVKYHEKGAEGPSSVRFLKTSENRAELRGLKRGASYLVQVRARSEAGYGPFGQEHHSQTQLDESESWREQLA

[2] = molecular target: T2, mouse EphB4 AP (mouse, UniProt P54761 16-539); test: ELISA
T2 chain: T1 chain

[3] = molecular target: T1, EphB4 Fc; test: ELISA; competition with ephrin-B2 AP

Kd [1]: 2.7 nM
Kd [2]: 11 nM
B1: biotinylated TNYL-RAW peptide (peptide)
peptide: TNYLFSPNGPIARAW[Ahx]K(Biotin)

IC50 [3]: 13 nM
B2: TNYL-RAW peptide (peptide)
chain: TNYLFSPNGPIARAW

Kd [2]: 4.7 nM
IC50 [3]: 6.5 nM
B3: TNYL-RAW fused with human Fc (TNYL-RAW-Fc) (Fc fusion)
chain: TNYLFSPNGPIARAWGSGSK

Kd [1]: 2.9 nM
IC50 [3]: 24 nM
B4: PEGylated TNYL-RAW (PEG-TNYL-RAW) (peptide)
chain: {PEG 40 kDa branched (NHS-glutaryl)}-TNYLFSPNGPIARAW
